From patent US20240352105A1, “COMPOSITIONS AND METHODS FOR NEUTRALIZING ANTIGENS” (PACAGEN, INC, priority 2023, published 2024) come the findings set out here.

Series [1] concerns the target T1, recombinant His-tagged Can f1 (dog (Canis familiaris), UniProt O18873 19-174).
T1 construct: also called Can f1-His; recombinant Can f1; not shown: His tag
In words: ELISA, antigen coated. As to the method: (§1) 2 microgram per milliliter (μg/mL) target antigen is coated in a 96-well plate and ELISA assay is performed after incubation with candidate VHHs. The binding EC50 of each clone is calculated using Prism GraphPad. The positive control antibody is involved as an internal control.
(§2) Isolated VHH clones were further validated by performing an ELISA assay as described in Example 1. Metrics of thermostability including melting temperature (Tₘ), onset temperature (Tₒₙₛₑₜ), and temperature of aggregation (Tagg), were also tested with increasing temperature in the range of 20° C.-95° C. at the speed of 1° C./min. The individual binding curves are shown for each candidate in FIGS. 5B-5H.
On the technique in general: An ELISA detects its analyte on a solid surface through an enzyme-linked reagent.

Series [2] has as its target T2, recombinant His-tagged Der p1 (dust mite, UniProt P08176 99-320, limits assumed).
T2 sequence (looked up): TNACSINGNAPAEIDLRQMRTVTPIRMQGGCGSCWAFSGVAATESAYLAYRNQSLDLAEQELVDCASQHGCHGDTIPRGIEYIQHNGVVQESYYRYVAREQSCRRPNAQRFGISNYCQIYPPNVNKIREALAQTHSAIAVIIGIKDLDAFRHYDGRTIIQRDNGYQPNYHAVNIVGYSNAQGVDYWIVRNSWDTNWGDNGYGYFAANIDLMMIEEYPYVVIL
In words: cell-based or functional assay.

Series [3] deals with T2, recombinant His-tagged Der p1. In words: ELISA, antigen coated on plate. The method, then: as §1
Isolated VHH clones were further validated by performing an ELISA assay as described in Example 1. The individual binding curves are shown for each candidate in FIGS. 9A-9K.

The target of series [4] is T3, recombinant His-tagged Der p2 (dust mite, UniProt P49278 18-146).
T3 construct: also called Der p2-His; Der p2-HIS; not shown: His tag
T3 sequence (looked up): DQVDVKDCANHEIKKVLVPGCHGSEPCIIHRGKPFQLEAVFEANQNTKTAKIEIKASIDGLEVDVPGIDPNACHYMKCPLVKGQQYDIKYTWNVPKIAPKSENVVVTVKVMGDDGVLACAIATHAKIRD
In words: ELISA, antigen coated. As to the method: as §1
as §2, with “C./min. These measurements were performed using a Nanotemper DSF. When applicable, Tₘ1 refers to the first melting point observed, Tₘ2 refers to the second melting point observed, etc., Sequence information for the VHH clones and the binding assay results are summarized in Table 3.” for “C./min.”, “3B-3I.” for “5B-5H.”

Series [5] in a line: Thermostability (Tm, Tonset, Tagg) by Nanotemper DSF. Format: physicochemical. More on the design: key to Tm2 / Tagg / Tm1 / Tm / Tm3 / Tonset / Tonset ø (mean) / Tagg ø (mean): temperatures in °C. As to conditions: anti-Der p2 VHH; for Tagg: 20° C.-95° C. at 1° C./min; for Tm1: first melting point observed; for Tm2: second melting point observed. As to the method: as §2, with “(Tm),” for “(Tₘ),”, “(Tonset),” for “(Tₒₙₛₑₜ),”, “C./min. These measurements were performed using a Nanotemper DSF. When applicable, Tm1 refers to the first melting point observed, Tm2 refers to the second melting point observed, etc., Sequence information for the VHH clones and the binding assay results are summarized in Table 3.” for “C./min.”, “3B-3I.” for “5B-5H.”
Isolated VHH clones were further validated by performing an ELISA assay as described in Example 1. Metrics of thermostability including melting temperature (Tm), onset temperature (Tonset), and temperature of aggregation (Tagg), were also tested with increasing temperature in the range of 20° C.-95° C. at the speed of 1° C./min. The individual binding curves are shown for each candidate in FIGS. 5B-5H.
Isolated VHH clones were further validated by performing an ELISA assay as described in Example 1. Metrics of thermostability including melting temperature (Tm), onset temperature (Tonset), and temperature of aggregation (Tagg), were also tested with increasing temperature in the range of 20° C.-95° C. at the speed of 1° C./min. The individual binding curves are shown for each candidate in FIGS. 7B-7P.
The detailed thermostability graphs used to determine the Tm, Tonset, and Tagg are illustrated in FIGS. 19A-19I and raw data is summarized in Table 23. Any subsequent melting points observed (Tm1, Tm2, Tm3, etc.) are separated by commas.

T1 sequence (O18873 19-174 limits assumed): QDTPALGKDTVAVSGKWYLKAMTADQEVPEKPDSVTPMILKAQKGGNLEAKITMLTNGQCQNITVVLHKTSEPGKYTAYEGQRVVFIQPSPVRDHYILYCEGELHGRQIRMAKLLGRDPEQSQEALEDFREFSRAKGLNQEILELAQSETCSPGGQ

B1: SDAB22112-1-D12-3 (VHH)
VHH: QVQLVESGGGLVQPGGSLRLSCAASGFTFSNYGMSWVRQAPGKGLEWVSDVNSSGSRRFYVDSVKGRFTISRDNAKNTVFLQMNSLKPEDSAVYYCVKLAEAGTLIHVGSWGQGTRVTVSS
notes: anti-Can f1 alpaca VHH
In the case of B1, in series [1], the EC50 (in general, the concentration needed to bring the measured effect to its halfway point) amounted to 10.4 µg/mL.

B2: SDAB22129-55-35-46-49-1-G07 (VHH)
VHH: QVQLVESGGGLVQAGGSLRLSCAASGRTFSSYAMGWFRQAPGKERELVATISWSGGSTYYADSVKGRFTISRDNAKNTGFLQMNSLKPEDTAVYYCAADFASTVGTPLTRPAYWGQGTQVTVSS
notes: Expressed from a prokaryotic vector
Take B2: the “Maximum Rate of Blocking” value in series [2] is 93.3. In addition, in series [3], the EC50 was found to be 0.485 µg/mL.

B3: SDAB22129-55-35-46-49-1-G02 (VHH)
VHH: QLQLVESGGGLVQAGGSLRLSCTASGRTFRNFGMGWFRQAPGKERKLVASISYVGGNTDYADSVKGRFTISMDNAKNTVVLQMNSLKPEDTAMYYCAARNPNRNEYPWWGQGTQVTVSS
notes: as for B2
For the molecule B3, the “Maximum Rate of Blocking” value in series [2] was 85.2. Further, the EC50 in series [3] is 4.21 µg/mL.

B4: SDAB22111-1-E10 (VHH)
VHH: QLQLVESGGGMVQPGGSLRLSCAASGTLFSTALMGWYRQAPGKQRTLVASITDGGSTNYVDSVKGRFTISRDNEKNTVYLQMNSLKFEDTAVYYCNAHWGSYDYWGQGTQVVVSS
notes: anti-Der p2 alpaca VHH; prokaryotic expression
Regarding B4, in series [4], the EC50 was found to be 6.57 µg/mL.

B5: SDAB22129-55-35-46-49-1-C12 (VHH)
VHH: QVQLVESGGGLVQAGGSLRLSCAASGRTFSSYAMGWFRQAPGKEREFVAIISNTGGLTDYAHSVKGRFTISRDNAKNTGYLQMNSLKPEDTALYYCAADFLGPKSWPSYWGQGTQVTVSS
notes: as for B2
Regarding B5, the “Maximum Rate of Blocking” value in series [2] stood at 91.6. Also, the EC50 in series [3] is 4.95 µg/mL.

B6: SDAB22129-55-35-46-49-1-D01 (VHH)
VHH: QVQLVESGGGLVQAGGSLRLSCAASGRTFSRYAMGWFRQAPGKEREFVAAITGSGSRTYYADSIQGRFTISRDNAKNTVYLQMNSLKPEDTAVYYCVQGWAEATMTSLGEDYDYWGQGTQVTVSS
notes: as for B2
As for B6, the “Maximum Rate of Blocking” value in series [2] turned out to be 73. For the same molecule, the EC50 in series [3] is 0.0147 µg/mL.

B7: SDAB22111-1-B1 (VHH)
VHH: DVQLVESGGGLVQPGGSLRLSCAASGFTFALYSMRWYRQAPGKERELVAAITSGRSTNYADSVKGRFTISRDNAKNTVYLQMNSLKPEDTAVYHCNARHPIATLGNYWGQGTPVTVSS
notes: as for B4
In the case of B7, in series [4], the EC50 was 8.23 µg/mL.

B8: SDAB22111-1-F9 (VHH)
VHH: QVQLVESGGGLVQPGGSLRLSCAASGRIFRPDGMAWYRQAPGKQREFVAGITRGGRTTYADSVKGRFTISRDNAENTVYLQMNSLKPEDTAVYYCNAKPSAWTLPRYRYDYWGQGTQVTVSS
notes: as for B4
For B8, in series [4], the concentration giving a half-maximal response (EC50) stood at 4.95 µg/mL.

B9: SDAB22129-55-35-46-49-1-B02 (VHH)
VHH: QLQLVESGGGLVQSGGSLRLSCVAKGGTNHPYPIGWFRQAPGKEQEGVLCIASGGQTQDSAHNPNWADSVKGRFTISRDDATHTVYLEMNNLKADDTAVYFCAAPREIYIDSRCATYKYEYWGQGTQVTVSP
notes: as for B2
As for B9, the “Maximum Rate of Blocking” value in series [2] turned out to be 75.4. Besides, the EC50 in series [3] turned out to be 0.0193 µg/mL.

B10: SDAB22111-1-F9-B03 (VHH)
VHH: EVQLVESGGGLVQPGGSLRLSCAASGRTFSSYAMGWFRQAPGKEREFVAGISRRGSNIYYADSVKGRFTISRDNAKNTVYLQMNSLKPEDTAVYYCNARHPRISTRLYWGQGTQVTVSS
notes: as for B4
On to B10, for which the EC50 in series [4] was determined as 15.9 µg/mL. The same molecule yielded a Tagg in series [5] of 40.04. For the same molecule, the Tm in series [5] (single melting point, in °C (unit assumed)) is reported as 71.38.

B11: SDAB22111-1-D6 (VHH)
VHH: DVQLVESGGGLVQPGGSLRLSCVASGLTFSYYDMKWHRQAPGKERELVAAIIEGGRTMYADSVKGRFTISRDSPKKSVYLQMNNLKSEDTAVYYCNAVRARFRGLGNDDAWGQGTQVTVSS
notes: as for B4
Regarding B11, the concentration for a half-maximal effect (EC50) in series [4] was 9.66 µg/mL. Moreover, the Tagg in series [5] amounted to 41.57. Besides, in series [5] (in °C (unit assumed)), the Tm1 is 49.02 and the Tm2 is 62.55.

B12: SDAB22129-55-35-46-49-1-H08 (VHH)
VHH: EVQLVESGGGLVQAGGSLTLSCGRTTSIWGMGWFRQGRGKEREFVAAITPSGSITFYSDHVKGRFTVSRDNALNTVYLQMNSLKPEDTAVYYCARRGSSGSYYWAGSYEAWGQGTQVTVSS
notes: as for B2
Consider B12, for which the “Maximum Rate of Blocking” value in series [2] was 92.8. The 50% effective concentration (EC50) in series [3] is 16.5 µg/mL.

B13: SDAB22111-1-D3 (VHH)
VHH: QLQLVESGGGLVQPGGSLRLSCVVSGRTLSGHNMGWFRQAPGKEREFVARINSNGGTTRYADAVKGRFTISRDNAKNTAYLQMNSLKSEDTAVYYCRLVGPAGYWGQGTQVTVSS
notes: as for B4
B13: the EC50 in series [4] worked out at 8.41 µg/mL. Further, the Tagg in series [5] is recorded as 42.45. In series [5] (in °C (unit assumed)), the Tm1 is given as 53.78 and the Tm2 came out at 69.76.

B14: SDAB22112-1-C10 (VHH)
VHH: QLQLVESGGGLVQPGGSLRLSCAASGFTFSSYSMSWYRQAPGKERELVATIDTDGRTNYADSVKGRFTISRDNAKNSVYLQMNSLKPEDTAVYYCNRRQLGVDYWGQGTQVTVSS
notes: anti-Can f1 alpaca VHH
In the case of B14, in series [1], the EC50 is 9.4 µg/mL.

B15: SDAB22111-1-H12 (VHH)
VHH: QVQLVESGGGLVQPGGSLRLSCAASRSIDRFPAMGWYRQAPGKKRELVAAISSANTRTKYADSVKGRFTISRDNAENTMYLQMNSLKPEDTAVYYCNVFPRPVQGYWGQGTQVTVSS
notes: as for B4
B15: in series [4], the EC50 came out at 2.67 µg/mL. The molecule also gave a Tagg in series [5] of 43.37. For the same molecule, in series [5] (in °C (unit assumed)), the Tm1 is recorded as 51.93 and the Tm2 is reported as 59.13. The Tm3 in series [5] (third melting point, in °C (unit assumed)) worked out at 68.62.

B16: SDAB22111-1-C1 (VHH)
VHH: QVQLVESGGGLVQPGGSLRLSCAASASFVGAYAMYWFRQATGKQRELVAFITSGNSTNYADSVKGRFTISRDYTKNTVYLQMNKLKPEDTAVYSCNLVTSRGDYWGQGTQVTVSS
notes: as for B4
Consider B16, for which, in series [4], the EC50 was found to be 1.11 µg/mL. In addition, in series [5], the Tagg was 43.53. In series [5] (in °C (unit assumed)), the Tm1 came out at 54.52 and the Tm2 came out at 66.51.

B17: SDAB22112-2-D08 (VHH)
VHH: QVKLEESGGGLVQAGGSLRLSCVASGRTFSRWHTGWYRQAPGREREFVATLRASGGDTYYADSVKGRFTISRDNAKNTVYLQMNSLKPEDTAVYYCNVWANWGAPPSDFSSWGQGTQVTVSS
notes: anti-Can f1 alpaca VHH
With B17, the EC50 in series [1] was 5.84 µg/mL.

B18: SDAB22129-55-35-46-49-1-B12 (VHH)
VHH: QVQLVESGGGLVQAGGPLRLSCAASGRTFSSYAMGWFRQAPGKEREFVAAISWSGDSTYYADSVKGRFTLSRDNAKNTVYLQMNSLKPEDTAVYYCAVPSSGRGTYYYTLSAYEYWGQGTQVTVFS
notes: as for B2
On to B18, for which, in series [2], the “Maximum Rate of Blocking” value was 95.4. In addition, the EC50 in series [3] was 1.77 µg/mL.
